Laboratory results reported in the supplement of paper PMC10567573.

B1: NETO1 (parent)
chain: GFSPIIGRFCGQQNPPVIKSSGRF
B2: C10orf62 (parent)
chain: RALEEVEMKLQKNFLTQRENTIAG

Variants of: B1
Assay: protein stability index of a GFP-peptide fusion (GPS, HEK-293T) (PSI 1-6); higher = more stable
Conditions: c terminus: a fixed tail appended
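Also: lentivirally expressed fusions sorted by FACS into six bins by GFP to DsRed ratio, PSI derived from sequencing read proportions per bin multiplied by bin number.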

Protein stability index, by site and new letter:
P15: L 2.59, M 1.99, N 2.52, Q 1.96, R 1.65, S 1.93, T 2.04, V 2.14, W 2.13, Y 2.1
P16: A 2.03, C 2.02, D 2.1, E 2.58, F 1.85, G 1.85, H 2.18, I 1.86, K 2.03, L 1.59, M 2.16, N 1.73, Q 1.69, R 2.32, S 2.05, T 2.23, V 2.26, W 1.32, Y 2.24
V17: A 2.04, C 1.62, D 2.75, E 2.54, F 1.66, G 2.62, H 2.08, I 2.51, K 2.5, L 1.66, M 2.88, N 2.5, P 2.22, Q 2.52, R 2.23, S 2.3, T 2.05, W 2.42, Y 2.12
I18: A 2.7, C 2.65, D 2.73, E 2.61, F 1.95, G 2.24, H 1.76, K 2.72, L 2.17, M 2.17, N 3.43, P 2.92, Q 2.78, R 3.13, S 2.65, T 2.15, V 3.01, W 2.1, Y 2.43
K19: A 2.27, C 1.93, D 2.26, E 2.27, F 1.69, G 3.23, H 1.64, I 2.07, L 2.3, M 2.58, N 1.65, P 2.37, Q 1.42, R 1.85, S 2.48, T 1.94, V 1.48, W 1.78, Y 1.91
S20: A 2.67, C 2.18, D 1.55, E 2.11, F 2.26, G 1.9, H 2.16, I 1.58, K 2.65, L 2.59, M 1.66, N 2.45, P 2.45, Q 2.67, R 2.44, T 1.88, V 1.68, W 1.99, Y 1.43
S21: A 2.88, C 2.42, D 1.82, E 2.22, F 1.68, G 2.53, H 2.06, I 1.57, K 2.22, L 1.75, M 2.18, N 2.09, P 2.25, Q 2.08, R 2.26, T 2.36, V 2.15, W 1.8, Y 2.36
G22: A 1.87, C 1.97, D 2.06, E 1.63, F 1.82, H 1.59, I 1.73, K 2.54, L 2.81, M 1.65, N 2.2, P 2.15, Q 2.35, R 2.19, S 2, T 2.11, V 1.63, W 2.14, Y 2.1
R23: A 1.35, C 1.44, D 2.3, E 2.04, F 1.89, G 1.67, H 1.76, I 1.65, K 2.44, L 2.35, M 1.96, N 2.09, P 3.38, Q 1.56, S 1.94, T 1.64, V 2.22, W 2.26, Y 2.6
F24: A 2.42, C 2.48, D 2.98, E 2.76, G 3.51, H 2.26, I 2.23, K 3.64, L 3.69, M 1.97, N 2.64, P 2.51, Q 3, R 2.66, S 3.88, T 2.65, V 2.42, W 1.6, Y 2.4

Variants of: B2
Assay: as above
Conditions: c terminus: a fixed tail appended

Protein stability index, by site and new letter:
F14: Q 4.45, Y 3.69, H 4.47, M 3.82, D 4.66, V 3.97, I 3.86, G 4.11
N13: I 1.76, A 2.58, R 3.42, F 2.23, D 3.89, G 3.15, E 3.92
Q17: R 2.74, H 3.31, C 3.21, M 3.56, F 2.13, D 4.13, I 2.89, T 3.2
L10: M 3.75, P 4.4, E 5.17, N 4.25, Q 3.22, C 3.58, S 4.66, A 4.13
L15: Y 3.71, S 4.38, E 4.3, G 3.9, T 3.66, C 3.44, D 4.69
K9: N 2.98, Y 1.67, R 2.31, P 3.51, D 4.13, G 3.75
E4: F 3.13, L 2.31, P 4.36, N 3.29, V 2.36, M 2.63, H 3.18, R 4, Y 2.56
E19: P 2.85, G 3.31, M 2.65, Q 2.84, N 3.2, K 3.53, D 3.78, A 3.82
E7: Y 2.38, D 3.69, A 2.02, T 2.6, I 3.36, C 1.8
M8: T 4.23, H 4.23, A 4.09, N 3.75, W 2.81
I22: Y 3.38, T 3.89, L 3.21, C 3.92
R18: M 3.12, L 2.08, P 3.72, I 3.09, W 2.47, F 2.53, D 4.59, K 3.74
G24: I 2.31, Y 2.18, P 3.71
T16: A 2.98, W 2.97, S 3.64, Q 3.45, D 4.09, E 3.91
A2: N 3.89, F 2.54, Y 2.98, T 3.83, V 2.96, K 3.7, S 3.9
L3: H 4.34, C 4.02, Q 4.47, F 4.04, V 4.27, S 4.05
K12: D 4.03, T 4.2, S 2.77, E 4.05, H 3.43, W 1.94, C 3.3
E5: T 3.02, Y 2.27, M 2.23, W 1.85, I 1.93, N 3.98, S 3.51
V6: E 4.75, C 3.56, I 2.52, N 4.33
R1: K 3.6, L 2.54, N 4.37, V 3.1, F 3.17, W 3.15, S 3.85, H 3.69, C 1.89
A23: D 4.19, R 3.51, S 3.42, E 4.28, P 3.93, Q 3.64
T21: W 2.93, M 3.27, L 3.2, I 3.34, V 3.36
Q11: P 3.9, K 3.31, T 3.73, R 3.71
N20: V 3.35, R 3.29, K 3.75, T 3.7, G 3.6
